Experimental data: publication PMC8324831 (2021)
Changes are numbered by the printed parent chain.

B1: sybody MR4 (VHH)
VHH: QVQLVESGGGLVQAGGSLRLSCAASGFPMYAWEMAWYRQAPGKEREWVAAIRSMGVHTHYSDSVKGRFTISRDNAKNTVYLQMNSLKPEDTAVYYCNVKDFGGHQAYYDYWGQGTQVTVS
B2: sybody SR4 (VHH)
VHH: QVQLVESGGGLVQAGGSLRLSCAASGFPVYSWNMWWYRQAPGKEREWVAAIESHGDSTRYADSVKGRFTISRDNAKNTVYLQMNSLKPEDTAVYYCYVWVGHTYYGQGTQVTVS
modifications: biotin by an amine-reactive crosslinker (only where immobilised on the SA sensor)
B3: sybody LR1 (VHH)
VHH: QVQLVESGGGSVQAGGSLRLSCAASGSISSITYLGWFRQAPGKEREGVAALITDSGRTYYADSVKGRFTVSLDNAKNTVYLQMNSLKPEDTALYYCAAAEWGYEWPLYYASSWYWGQGTQVTVS
B4: sybody LR5 (VHH)
VHH: B3 VHH with D54S, S55N, E100T, E104H, Y108G, Y109A, A110W, S111D, S112Y
B5: sybody MR17 (VHH)
VHH: QVQLVESGGGLVQAGGSLRLSCAASGFPVEVWRMEWYRQAPGKEREGVAAIESYGHGTRYADSVKGRFTISRDNAKNTVYLQMNSLKPEDTAVYYCNVKDDGQLAYHYDYWGQGTQVTVS
modifications: biotin by an amine-reactive crosslinker (only where immobilised on the SA sensor)

target: T1, SARS-CoV-2 S-RBD with Avi-tag and deca-His tag (residues 330-531) (SARS-CoV-2, UniProt P0DTC2 330-531); assay: BLI

Binder	koff [s⁻¹]
B1	0.0064
B2	0.0014
B3	0.0096
B4	0.0032
B5	0.0097

target: T1, SARS-CoV-2 S-RBD with Avi-tag and …; assay: BLI; remark: another data set of the same source

Binder	Kd [nM]
B1	23.3
B2	14.5
B3	47.5
B4	22.8
